Test results reported in the supplement of paper PMC9732359.
± gives the uncertainty stated by the source.

Experiment: protein stability index of a GFP-peptide fusion (yeast GPS) (PSI 1-4); higher = more stable; sorted into four equal gates, so the index is relative within each strain
Settings: san1∆
In short: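 Tiled 17-residue peptides from yeast proteins were fused downstream of GFP on a plasmid that also expresses Cherry, and the pooled library was carried in yeast. Mid-log cultures grown in leucine-free medium were sorted into four equal gates by GFP/Cherry fluorescence ratio. Plasmids from each gate were PCR-amplified and Illumina-sequenced, and reads were assigned to strains by barcodes. Each peptide's protein stability index is the sum, over gates, of the gate's read frequency multiplied by its gate number.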

Sequence | protein stability index
IVMVWLKENTYVMERPK [YDL116W/NUP84] | 1.43 ± 0.14
IVNHEQDLPKINDKRAN [SRB4] | 2.96 ± 0.098
IVPDLIINPHAIPSRMT [RPB2] | 1.75 ± 0.068
IVQFTYGGDGLDPLEME [RPO31] | 2.55 ± 0.27
IVWRFISENTFPNGFKN [RPC34] | 2.06 ± 0.077
IWLRKTSQMDLARDTPS [RRP4] | 1.54 ± 0.097
IWMRGHGTYFLDNMTYS [RRP4] | 2.31 ± 0.082
IYDFPGTPEATKGMITN [NUT2] | 2.98 ± 0.15
IYSSDAQGDPNLEPLIA [NUT1] | 3.04 ± 0.065
IYVHVRRSTPFSKIAEY [ESC2] | 2.52 ± 0.05
KAAISFGAKPEEQKSSD [YJL041W/NSP1] | 3.5 ± 0.17
KAEVTQLSNGIVVATEH [COR1] | 3.18 ± 0.18
KAFEERHQAGKNQWFFS [RPL27A] | 2.65 ± 0.11
KAFKNNSSKYYINEKES [SMC4] | 2.27 ± 0.083
KAGKVAVVVRGRYAGKK [RPL27A] | 2.19 ± 0.097
KAIFPNTVDGDLLKLVH [FAS1] | 2.22 ± 0.14
KAIRGMVSHKTARGKAA [RPL16B] | 2.14 ± 0.087
KAKERLQALKANDEEAY [SNF2] | 2.55 ± 0.067
KAKNPLTHSTPKNFGIG [RPL8B] | 3.14 ± 0.074
KAKSHFTNIISRNKALE [YJL039C/NUP192] | 2.39 ± 0.13
KALAIFVPVPSLAGFHK [RPS7A] | 1.77 ± 0.069
KAPNAVVITFEKEDHTL [RPB11] | 2.19 ± 0.091
KASTYGELVLDIEVPDV [SNF12] | 2.13 ± 0.075
KCKTRAQLTLKRCKHFE [RPL42A] | 2.85 ± 0.064
KCVVIHNGSHRTVAGFS [ARP7] | 2.54 ± 0.051
KDAVDYSKIPNILSNKP [RRP6] | 1.58 ± 0.21

Sequence | protein stability index
KDFTNKNLIQLISLKLL [SRB8] | 1.66 ± 0.067
KDGRIRIFKITEKLSPL [YGL100W/SEH1] | 2.57 ± 0.08
KDKLREFIPHSTEYMMQ [RPN6] | 2.83 ± 0.075
KDLETLYNKIWTEASSS [ECM29] | 2.71 ± 0.091
KDQLPDLESMGLTQLYK [MED7] | 2.87 ± 0.077
KDRISHEVVQDDSFSLL [PCI8] | 3.19 ± 0.056
KDSNKDVVVEGLRRARY [RPL10] | 3.38 ± 0.072
KDSSLNYSSESYRNAFT [YJL039C/NUP192] | 2.02 ± 0.069
KEDHPLEFYKDKFFNEV [SIR3] | 3.34 ± 0.055
KEIYYTPDPSELAAKEE [FAS2] | 2.601 ± 0.024
KEKEKEREEAEKKRAEQ [MED2] | 2.75 ± 0.28
KEKIKNNRQLPYLVANV [RPT5] | 3.11 ± 0.096
KELAELKVQKLSRPSLP [RPL35A] | 2.5 ± 0.061
KELENNLERLRSDLQSK [YIL149C/MLP2] | 3.05 ± 0.068
KERLTKEAAAIAEGKSK [RPL8B] | 2.02 ± 0.073
KETIARVTGGMKVKADR [RPS14A] | 3.31 ± 0.062
KETQQYELEFDTPTSGK [BRR2] | 3.05 ± 0.041
KEVLPDLQNLNLNTDKL [YJL039C/NUP192] | 3.25 ± 0.097
KFDSRIRGILMASGSTT [PRP8] | 2.06 ± 0.12
KFENDELAESTTTKIID [LRP1] | 2.23 ± 0.086
KFFQKKIHLYEKKLEDY [YGL172W/NUP49] | 2.71 ± 0.071
KFKLLNGLAIRRAAYGV [RPS3] | 1.88 ± 0.062
KFMTNSTAFVPTIEYVQ [ARP9] | 2.83 ± 0.076
KFRSSILRKSFDFLMNM [RPN2] | 2.04 ± 0.12
KFSLPFEQKGSQTTTND [YLR335W/NUP2] | 3.11 ± 0.099
KFSSRHGQKGVCGIIVK [RET1] | 3.71 ± 0.051
